B1: pre-mRNA splicing regulator USH1G (Homo sapiens), Q495M9 (parent)
chain: MNDQYHRAARDGYLELLKEATRKELNAPDEDGMTPTLWAAYHGNLESLRLIVSRGGDPDKCDIWGNTPLHLAASNGHLHCLSFLVSFGANIWCLDNDYHTPLDMAAMKGHMECVRYLDSIAAKQSSLNPKLVGKLKDKAFREAERRIRECAKLQRRHHERMERRYRRELAERSDTLSFSSLTSSTLSRRLQHLALGSHLPYSQATLHGTARGKTKMQKKLERRKQGGEGTFKVSEDGRKSARSLSGLQLGSDVMFVRQGTYANPKEWGRAPLRDMFLSDEDSVSRATLAAEPAHSEVSTDSGHDSLFTRPGLGTMVFRRNYLSSGLHGLGREDGGLDGVGAPRGRLQSSPSLDDDSLGSANSLQDRSCGEELPWDELDLGLDEDLEPETSPLETFLASLHMEDFAALLRQEKIDLEALMLCSDLDLRSISVPLGPRKKILGAVRRRRQAMERPPALEDTEL
partner: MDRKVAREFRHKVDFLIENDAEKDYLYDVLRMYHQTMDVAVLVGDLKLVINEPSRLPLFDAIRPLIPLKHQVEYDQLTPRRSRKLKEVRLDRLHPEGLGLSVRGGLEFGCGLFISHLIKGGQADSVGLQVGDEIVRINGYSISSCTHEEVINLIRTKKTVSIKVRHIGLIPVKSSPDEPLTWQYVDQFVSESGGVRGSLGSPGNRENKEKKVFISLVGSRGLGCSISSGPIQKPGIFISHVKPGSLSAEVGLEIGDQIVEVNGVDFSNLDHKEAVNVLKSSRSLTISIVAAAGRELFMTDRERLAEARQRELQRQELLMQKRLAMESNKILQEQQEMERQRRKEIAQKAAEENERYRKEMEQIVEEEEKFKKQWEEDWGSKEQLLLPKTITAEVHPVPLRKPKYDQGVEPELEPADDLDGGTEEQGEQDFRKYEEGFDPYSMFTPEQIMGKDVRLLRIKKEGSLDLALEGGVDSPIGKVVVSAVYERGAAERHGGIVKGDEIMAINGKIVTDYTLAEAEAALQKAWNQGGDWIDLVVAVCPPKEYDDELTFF
B2: Harmonin (Homo sapiens), Q9Y6N9 (parent)
chain: B1 partner
partner: B1 chain

The variants in one assay derive from B1. Conditions: with ush1c_human USH1C, Q9Y6N9.
Consider D458V, for which the “effect of a mutation on the interaction” value is “decreasing interaction”.

In another assay the parent is B2. The following applies: with ush1g_human USH1G, Q495M9.
As for R103H, the “effect of a mutation on the interaction” value is recorded as “decreasing interaction”.
